From patent publication US9902758B2, “Three-helix bundle protein and use thereof” (Samsung Electronics Co., Ltd., priority 2015, dated 2018)

T1: HDMX NTD (the region from 1st to 132nd amino acids of NP_001191100.1) (Homo sapiens, UniProt O15151)
T1 construct: the region from 1st to 132nd amino acids of NP_001191100.1
T1 sequence (O15151 1-132 isoform O15151-5): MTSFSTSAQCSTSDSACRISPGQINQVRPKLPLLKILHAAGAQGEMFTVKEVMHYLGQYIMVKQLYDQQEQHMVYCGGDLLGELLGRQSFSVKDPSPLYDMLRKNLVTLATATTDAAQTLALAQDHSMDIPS

B1: M11: modified three-helix bundle protein, a3D variant, SEQ ID NO: 7 (protein)
chain: MGSWAEFSQRLFAIYWRLLALGGSEAELAAFEKEIAAFESELQAYKGKGNPEVEALRKEAAAIRDELQAYRHN
modifications: Synthetic M11
B2: M25: modified three-helix bundle protein, a3D variant, SEQ ID NO: 16 (protein)
chain: MGSWFEFAWRLLEIKTRLQALGGSEAELAAFEKEIAAFESELQAYKGKGNPEVEALRFEAYWIRLELQAYRHN
modifications: Synthetic M25

Columns and labels:
[1] = related art statement; cited from earlier work
[2] = system: SJSA-1 (p53+/+) osteosarcoma cell line; experiment: Cell cycle arrest in SJSA-1 cells (EdU / Hoescht 33342 imaging); type: cell-based; details: 10 uM, 24 hours, compared to control (Mock), FIG. 7
Method: In this example, it was examined if the modified three-helix bundle proteins prepared in Example 3 can induce G1 and G2/M phase cell cycle arrest in SJSA-1 (p53+/+; ATCC), which is an osteosarcoma cell line expressing wild-type p53.
In particular, SJSA1 cells were treated with the modified three-helix bundle protein M11 or M25 at the concentration of 10 uM for 24 hours, and stained with EdU (Edu staining kit, Life Technology Inc.) and Hoescht 33342 (Life Technology Inc.). Among the cells, at least 1000 cells were analyzed by imaging with incell analyzer 6000 (Ge Healthcare) and incell communicator (GE Healthcare). For comparison, the same experiment using Nutlin 3a (Sigma) at the concentration of 10 uM was performed as a positive control.
The imaging results were analyzed by measuring the intensities of EdU (S phase indicator) and Hoescht33342 (DNA content indicator) at single cell level, and determining each population by measuring intensity of Hoescht33342 (DNA content indicator) and EdU (S phase indicator) at single cell level, thereby measuring ratio of cells at each cell cycle phase. The obtained population of each cell cycle phase was shown in FIG. 6, and the S phase measured by EdU uptake amount (EdU intensity) was shown in FIG. 7. […] G2/M is considered as a course progressing to G1 phase.

[3] = target: T1, HDMX NTD (the region from 1st to 132nd amino acids of NP_001191100.1); experiment: ELISA binding strength to HDMX NTD; details: absorbance at 450 nm, GST-fused protein 0-5.5 uM, versus GST only (negative control) and GST-p53LZ2 (positive control), FIG. 3
Method: (§1) The binding strength of the modified three-helix bundle proteins prepared in Example 1 was examined by ELISA.
(§2) In particular, each of full-length HDM2 (NP 002383.2), HDM2 N-terminal domain (NTD; the region from 1st to 125th amino acids of NP 002383.2), full-length HDMX (NP_001191100.1), and HDMX NTD (the region from 1st to 132nd amino acids of NP_001191100.1) was diluted to the concentration of 20 μg/ml with coating buffer (pH 9.6; 0.05M carbonate-bicarbonate buffer, pH9.6; Sigma-Aldrich), and coated on 96 well (Nunc, Maxisorp). The well was incubated overnight at 4° C. Thereafter, bindings between other proteins were blocked with 300 ul of 3% skim milk w/PBS-T (at room temperature for 3 hours). The 96 well plate was washed with 200 uL of PBS-T and treated with GST-M11 (SEQ ID NO: 7) or GST-M25 (SEQ ID NO: 16) at a concentration of 0, 0.5, 1, 1.5, 2, 2.5, 3, 3.5, 4, 4.5, 5, or 5.5 uM (micromole). The GST protein was produced from GST cds included in pGEX-4T3 vector purchased from GE healthcare.
(§3) One hour after, the plate was washed with 300 uL of PBS-T, and treated with 100 uL of HRP conjugated-anti-GST antibody (Abcam, 1:2000). […] Thereafter, absorbance at 450 nm was measured using microwell reader (Molecular Device, 340PC384). […]

[4] = target: T2, full-length HDM2 (NP 002383.2) (Homo sapiens, UniProt Q00987); experiment: ELISA binding strength to full-length HDM2; details: absorbance at 450 nm, GST-fused protein 0-5.5 uM, versus GST only (negative control) and GST-p53LZ2 (positive control), FIG. 4
T2 construct: full-length HDM2 (NP 002383.2)
Method: as §1, §2, §3

[5] = target: T3, HDM2 N-terminal domain (NTD; the region from 1st to 125th amino acids of NP 002383.2) (Homo sapiens, UniProt Q00987); experiment: ELISA binding strength to HDM2 NTD; details: absorbance at 450 nm, GST-fused protein 0-5.5 uM, versus GST only (negative control) and GST-p53LZ2 (positive control), FIG. 5
T3 construct: the region from 1st to 125th amino acids of NP 002383.2
Method: as §1, §2, §3

[6] = system: SJSA-1 (p53+/+) osteosarcoma cell line; experiment: Cancer cell proliferation inhibition in SJSA-1 cells (CellTiter-Glo cell viability); type: cell-based; details: 5 days, TAT-coupled protein, FIG. 8; for cancer cell death rate: 10.00 uM
Method: The effects of the modified three-helix bundle proteins prepared in Example 1 to inhibit cancer cell proliferation was examined in SJSA-1 (p53+/+; ATCC), which is an osteosarcoma cell line expressing wild-type p53.
The cells were cultured in CO2 incubator under the conditions of 37° C., and CO2 5%, for 5 days. 80 uL of CellTiter-Glo reagent (Promega) was added to each well, and luminescence was measured with EnVision Multilabel Reader (PerkinElmer), to measure cell viability. The cell viability is indicated by a relative value to that of non-treated cells (“1.0”).

T3 sequence (Q00987 1-125 isoform Q00987-11): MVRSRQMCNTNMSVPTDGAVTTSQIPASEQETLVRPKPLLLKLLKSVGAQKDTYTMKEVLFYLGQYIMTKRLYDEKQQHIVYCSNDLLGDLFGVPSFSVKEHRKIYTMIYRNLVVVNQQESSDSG
T2 sequence (Q00987 1-497 isoform Q00987-11): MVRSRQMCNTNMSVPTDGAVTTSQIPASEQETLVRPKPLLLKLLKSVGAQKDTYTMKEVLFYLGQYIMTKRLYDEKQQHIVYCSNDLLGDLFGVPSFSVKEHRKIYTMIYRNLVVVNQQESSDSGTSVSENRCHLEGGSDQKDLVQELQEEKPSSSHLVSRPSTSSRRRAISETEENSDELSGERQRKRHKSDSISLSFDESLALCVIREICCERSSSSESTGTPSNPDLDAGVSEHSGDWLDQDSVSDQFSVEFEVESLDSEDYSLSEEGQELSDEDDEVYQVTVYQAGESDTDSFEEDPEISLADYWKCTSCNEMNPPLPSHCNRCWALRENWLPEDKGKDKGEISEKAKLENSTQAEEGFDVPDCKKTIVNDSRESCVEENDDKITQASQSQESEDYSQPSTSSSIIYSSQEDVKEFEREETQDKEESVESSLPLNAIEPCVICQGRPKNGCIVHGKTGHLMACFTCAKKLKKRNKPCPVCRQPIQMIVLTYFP

Row | Molecule | cytotoxicity [1] | level (cell number) of cells at S phase measured by EdU intensity [2] | binding strength to HDMX NTD [3] | binding strength to full-length HDM2 [4] | binding strength to HDM2 NTD [5] | cancer cell death rate [6] | cancer cell proliferation inhibition effect compared with positive control [6]
1 | COc1ccc(C2=N[C@@H](c3ccc(Cl)cc3)[C@@H](c3ccc(Cl)cc3)N2C(=O)N2CCNC(=O)C2)c(OC(C)C)c1 [Nutlin-3] | high level of cytotoxicity |  |  |  |  |  | 
2 | COc1ccc(C2=N[C@@H](c3ccc(Cl)cc3)[C@@H](c3ccc(Cl)cc3)N2C(=O)N2CCNC(=O)C2)c(OC(C)C)c1 [nutlin3a, Nutlin 3a, reference compound] |  | decrease in level (cell number) of cells at S phase compared to that of control (Mock) |  |  |  |  | 
3 | B1 |  | decrease in level (cell number) of cells at S phase compared to that of control (Mock) | considerably higher than that of the negative control, and similar to or higher than that of the positive control | considerably higher than that of the negative control, and similar to or higher than that of the positive control | considerably higher than that of the negative control, and similar to or higher than that of the positive control | at least 90% | equal to that of Nutlin-3
4 | B2 |  | decrease in level (cell number) of cells at S phase compared to that of control (Mock) | considerably higher than that of the negative control, and similar to or higher than that of the positive control | considerably higher than that of the negative control, and similar to or higher than that of the positive control | considerably higher than that of the negative control, and similar to or higher than that of the positive control | at least 80% | equal to that of Nutlin-3
